For experiment [1], the target named is CD22 (human) (UniProt P20273). Nature of the experiment: flow cytometry with the unconjugated specific antibody, FITC goat anti-human IgG; 697 cells (background 4.2). (Flow cytometry measures light scatter and fluorescence of single cells or particles in a stream.)
Experiment [2] deals with CD22 (human) (UniProt P20273). Nature of the experiment: flow cytometry with the unconjugated specific antibody, FITC goat anti-human IgG; REH cells (background 4.1).
The target of experiment [3] is CD22 (human) (UniProt P20273). The experiment can be described thus: flow cytometry with the unconjugated specific antibody, FITC goat anti-human IgG; Raji cells (background 6.8).
Experiment [4] addresses CD22 (human) (UniProt P20273). Nature of the experiment: flow cytometry with the unconjugated specific antibody, FITC goat anti-human IgG; Daudi cells (background 5.9).
Experiment [5] deals with CD22 (human) (UniProt P20273). The experiment can be described thus: flow cytometry with the unconjugated specific antibody, FITC goat anti-human IgG; MN-60 cells (background 5.8).
In experiment [6] the target is CD22 (human) (UniProt P20273). Nature of the experiment: flow cytometry with the unconjugated specific antibody, FITC goat anti-human IgG; Ramos cells (background 4.1).
For experiment [7], the target named is CD22 (human) (UniProt P20273). Nature of the experiment: flow cytometry with the unconjugated specific antibody, FITC goat anti-human IgG; Jeko-1 cells (background 6.5).
For experiment [8], the target named is CD22 (human) (UniProt P20273). The experiment can be described thus: flow cytometry with the unconjugated specific antibody, FITC goat anti-human IgG; RS4;11 cells (background 4.1).
In experiment [9] the target is CD22 (human) (UniProt P20273). The experiment can be described thus: flow cytometry with the unconjugated specific antibody, FITC goat anti-human IgG; WSU-FSCCL cells (background 4.9).
Experiment [10] addresses CD74 (invariant chain, Ii) (human) (UniProt P04233). The experiment can be described thus: flow cytometry, surface only; Raji cells.
Experiment [11] has the same target. Nature of the experiment: flow cytometry, surface only; A-375 cells.
Experiment [12] has the same target. The experiment can be described thus: flow cytometry, surface only; HuH-7 cells.
Experiment [13] has the same target. The experiment can be described thus: flow cytometry, surface only; Hep-G2 cells.
Experiment [14] shares this target. The experiment can be described thus: flow cytometry, surface only; Hs746T cells.
Experiment [15] has the same target. Nature of the experiment: flow cytometry, surface only; Capan-1 cells.
The target is the same in experiment [16]. Nature of the experiment: flow cytometry, surface only; NCI-N87 cells.
Experiment [17] shares this target. Nature of the experiment: cell binding to antigen-positive cells (cell line not given).
Experiment [18] has the same target. The experiment can be described thus: flow cytometry, surface and cytoplasmic (permeabilized cells); Raji.
For experiment [19] the target is unchanged. The experiment can be described thus: flow cytometry, surface and cytoplasmic (permeabilized cells); A-375.
Experiment [20] shares this target. The experiment can be described thus: flow cytometry, surface and cytoplasmic (permeabilized cells); HuH-7.
For experiment [21] the target is unchanged. The experiment can be described thus: flow cytometry, surface and cytoplasmic (permeabilized cells); Hep-G2.
The target is the same in experiment [22]. Nature of the experiment: flow cytometry, surface and cytoplasmic (permeabilized cells); Hs746T.
Experiment [23] shares this target. The experiment can be described thus: flow cytometry, surface and cytoplasmic (permeabilized cells); Capan-1.
Experiment [24] shares this target. Nature of the experiment: flow cytometry, surface and cytoplasmic (permeabilized cells); NCI-N87.
Experiment [25] shares this target. The experiment can be described thus: flow cytometry, surface only; Raji cells (background 3, GAH-FITC only).
Experiment [26] shares this target. Nature of the experiment: flow cytometry, surface only; A-375 cells (background 3, GAH-FITC only).
Experiment [27] shares this target. The experiment can be described thus: flow cytometry, surface only; HuH-7 cells (background 5, GAH-FITC only).
For experiment [28] the target is unchanged. Nature of the experiment: flow cytometry, surface only; Hep-G2 cells (background 6, GAH-FITC only).
The target is the same in experiment [29]. Nature of the experiment: flow cytometry, surface only; Hs746T cells (background 8, GAH-FITC only).
Experiment [30] shares this target. Nature of the experiment: flow cytometry, surface only; NCI-N87 cells (background 4, GAH-FITC only).
Experiment [31] shares this target. Nature of the experiment: flow cytometry, surface only; Capan-1 cells (background 12, GAH-FITC only).
Experiment [32] has the same target. The experiment can be described thus: flow cytometry, surface and cytoplasmic (permeabilized cells); Raji (background 5).
The target is the same in experiment [33]. The experiment can be described thus: flow cytometry, surface and cytoplasmic (permeabilized cells); A-375 (background 6).
The target is the same in experiment [34]. The experiment can be described thus: flow cytometry, surface and cytoplasmic (permeabilized cells); HuH-7 (background 4).
The target is the same in experiment [35]. The experiment can be described thus: flow cytometry, surface and cytoplasmic (permeabilized cells); Hep-G2 (background 5).
The target is the same in experiment [36]. Nature of the experiment: flow cytometry, surface and cytoplasmic (permeabilized cells); Hs746T (background 5).
Experiment [37] shares this target. The experiment can be described thus: flow cytometry, surface and cytoplasmic (permeabilized cells); Capan-1 (background 5).
The target is the same in experiment [38]. The experiment can be described thus: flow cytometry, surface and cytoplasmic (permeabilized cells); NCI-N87 (background 6).
Experiment [39] addresses CD20 (human) (UniProt P11836). Nature of the experiment: flow cytometry with the unconjugated specific antibody, FITC goat anti-human IgG; 697 cells (background 4.2).
The target of experiment [40] is CD20 (human) (UniProt P11836). The experiment can be described thus: flow cytometry with the unconjugated specific antibody, FITC goat anti-human IgG; REH cells (background 4.1).
Experiment [41] concerns the target CD20 (human) (UniProt P11836). The experiment can be described thus: flow cytometry with the unconjugated specific antibody, FITC goat anti-human IgG; Raji cells (background 6.8).
For experiment [42], the target named is CD20 (human) (UniProt P11836). Nature of the experiment: flow cytometry with the unconjugated specific antibody, FITC goat anti-human IgG; Daudi cells (background 5.9).
The target in experiment [43] is CD20 (human) (UniProt P11836). The experiment can be described thus: flow cytometry with the unconjugated specific antibody, FITC goat anti-human IgG; MN-60 cells (background 5.8).
For experiment [44], the target named is CD20 (human) (UniProt P11836). The experiment can be described thus: flow cytometry with the unconjugated specific antibody, FITC goat anti-human IgG; Ramos cells (background 4.1).
The target in experiment [45] is CD20 (human) (UniProt P11836). Nature of the experiment: flow cytometry with the unconjugated specific antibody, FITC goat anti-human IgG; Jeko-1 cells (background 6.5).
Experiment [46] concerns the target CD20 (human) (UniProt P11836). The experiment can be described thus: flow cytometry with the unconjugated specific antibody, FITC goat anti-human IgG; RS4;11 cells (background 4.1).
The target of experiment [47] is CD20 (human) (UniProt P11836). The experiment can be described thus: flow cytometry with the unconjugated specific antibody, FITC goat anti-human IgG; WSU-FSCCL cells (background 4.9).
In experiment [48] the target is CEACAM6 (human) (UniProt P40199). Nature of the experiment: flow cytometry; Hep-G2 cells.
The target is the same in experiment [49]. The experiment can be described thus: flow cytometry, surface; HuH-7 cells (staining antibody not given).
The target is the same in experiment [50]. The experiment can be described thus: flow cytometry, surface; NCI-N87 cells (staining antibody not given).
Experiment [51] concerns the target Human trophoblast cell-surface antigen (Trop-2) (human) (UniProt P09758). The experiment can be described thus: cell binding assay on Trop-2-expressing cells.
The target in experiment [52] is T1, Human trophoblast cell-surface antigen (Trop-2) (human, UniProt P09758 27-323).
T1 sequence (looked up): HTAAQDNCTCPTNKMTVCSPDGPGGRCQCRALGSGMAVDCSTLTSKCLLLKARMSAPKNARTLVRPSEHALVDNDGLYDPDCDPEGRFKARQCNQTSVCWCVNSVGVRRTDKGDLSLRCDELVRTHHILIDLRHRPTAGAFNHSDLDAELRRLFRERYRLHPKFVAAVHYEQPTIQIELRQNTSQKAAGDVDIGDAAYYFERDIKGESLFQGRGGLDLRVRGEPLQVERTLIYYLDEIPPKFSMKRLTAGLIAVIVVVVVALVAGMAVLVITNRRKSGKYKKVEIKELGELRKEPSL
The experiment can be described thus: cell-based or functional assay.

CEACAM6 (human), sequence (P40199 35-320): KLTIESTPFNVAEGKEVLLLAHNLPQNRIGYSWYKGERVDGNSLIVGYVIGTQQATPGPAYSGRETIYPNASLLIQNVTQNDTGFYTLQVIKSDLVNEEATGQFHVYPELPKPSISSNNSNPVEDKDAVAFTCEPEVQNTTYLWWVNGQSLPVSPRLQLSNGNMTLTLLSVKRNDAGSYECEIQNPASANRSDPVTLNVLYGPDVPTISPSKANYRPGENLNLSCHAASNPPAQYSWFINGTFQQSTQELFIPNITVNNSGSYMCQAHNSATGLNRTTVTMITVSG
CD20 (human), sequence (P11836 whole entry): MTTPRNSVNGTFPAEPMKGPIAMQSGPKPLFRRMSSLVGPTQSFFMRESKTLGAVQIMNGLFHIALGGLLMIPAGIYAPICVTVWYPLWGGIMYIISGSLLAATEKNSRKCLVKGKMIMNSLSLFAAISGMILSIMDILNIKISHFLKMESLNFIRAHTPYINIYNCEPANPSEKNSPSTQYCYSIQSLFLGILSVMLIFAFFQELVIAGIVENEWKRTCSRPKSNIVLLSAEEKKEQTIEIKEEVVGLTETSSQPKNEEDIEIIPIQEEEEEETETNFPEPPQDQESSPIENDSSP
CD74 (invariant chain, Ii) (human), sequence (P04233 whole entry, change not shown): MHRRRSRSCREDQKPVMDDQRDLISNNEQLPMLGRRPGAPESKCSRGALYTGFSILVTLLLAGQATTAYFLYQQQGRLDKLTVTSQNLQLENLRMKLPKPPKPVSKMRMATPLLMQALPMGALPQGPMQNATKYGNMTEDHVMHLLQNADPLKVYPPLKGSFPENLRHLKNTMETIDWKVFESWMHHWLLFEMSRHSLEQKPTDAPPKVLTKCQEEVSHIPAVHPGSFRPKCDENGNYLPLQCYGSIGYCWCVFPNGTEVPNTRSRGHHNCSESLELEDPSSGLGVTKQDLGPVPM

Regarding “Epratuzumab (hLL2, humanized anti-CD22 IgG1, unconjugated) (antibody)”, the Median fluorescence in experiment [1] amounted to 16; in [2] it was 22.9; in experiment [3], 45.9; in [4] it was 145; in [5], 10.3; in experiment [6], 40.8. The Median fluorescence in experiment [7] worked out at 11.2; in [8], 23.3; in experiment [9], 7.7.
A word on the Kd: it is a measure of binding affinity in units of concentration. For the molecule “Milatuzumab (hLL1, humanized anti-CD74 IgG1, unconjugated) (antibody)”, the MFI Ratio hLL1:bkgd was 19.6 in [10]; 5.3 in experiment [11]; 1.6 in experiment [12]; 1.5 in experiment [13]; 2.1 in experiment [14]; 1.8 in [15]. Further, the MFI Ratio hLL1:bkgd in [16] stood at 1.3; in experiment [18] it was 28.6; in experiment [19], 30.8; in [20], 28.5; in experiment [21], 31.2; in [22] it was 28.8. In addition, the MFI Ratio hLL1:bkgd in [23] amounted to 49.6; in experiment [24], 36.7. Also, the Kd in experiment [17] was 770 pM. The MFI in [25] is 59; in [26], 16; in experiment [27], 8; in [28] it was 9; in experiment [29], 17; in [30], 5. For the same molecule, the MFI in [31] was 22; in experiment [32], 143; in [33], 185; in experiment [34], 114; in experiment [35], 156; in experiment [36], 144. Further, the values for the MFI in experiment [37] and in experiment [38] were 248 and 220, respectively.
For Milatuzumab-CL2A-SN-38 (antibody), in experiment [17], the Kd was found to be 590 pM.
Still for that read-out and setting: the figure for Milatuzumab-CL2E-SN-38 (antibody) is 800 pM.
“Veltuzumab (hA20, humanized anti-CD20 IgG1, unconjugated) (antibody)”: the Median fluorescence in experiment [39] is 6.9; in experiment [40], 12.3; in [41], 422; in experiment [42], 815; in [43], 21.5; in experiment [44], 620. For the same molecule, the Median fluorescence was determined as 605 in experiment [45], 3.7 in experiment [46] and 97.4 in experiment [47].
“hMN-15 (humanized anti-CEACAM6 IgG1, unconjugated) (antibody)”: the MFI worked out at 175 in experiment [48], 81 in experiment [49] and 1120 in experiment [50].
hRS7-CL2A-SN-38 (antibody) gave a Kd in experiment [51] of 1200 pM.

B1: hRS7-CL2-SN-38 (antibody, INN chains, looked up, V domains shown, part only)
VH: QVQLQQSGSELKKPGASVKVSCKASGYTFTNYGMNWVKQAPGQGLKWMGWINTYTGEPTYTDDFKGRFAFSLDTSVSTAYLQISSLKADDTAVYFCARGGFGSSYWYFDVWGQGSLVTVSS
VL: DIQLTQSPSSLSASVGDRVSITCKASQDVSIAVAWYQQKPGKAPKLLIYSASYRYTGVPDRFSGSGSGTDFTLTISSLQPEDFAVYYCQQHYITPLTFGAGTKVEIK
modifications: SN-38 via CL2 linker
Molecule B1 registered a Kd in experiment [51] of 1200 pM.

B2: hRS7 IgG (humanized RS7 anti-Trop-2 antibody, unconjugated) (antibody, V domains shown)
VH: B1 VH
VL: DIQLTQSPSSLSASVGDRVSITCKASQDVSIAVAWYQQKPGKAPKLLIYSASYRYTGVPDRFSGSGSGTDFTLTISSLQPEDFAVYYCQQHYITPLTFGAGTKVEIKR
Take B2: the “ADCC, specific lysis of BxPC-3 target cells by PBMCs (effector to target ratio 100:1; antibody at 33.3 nM)” value in experiment [52] is 8.5%.

(Values after patent publication EP4257134A2 (Immunomedics, Inc., dated 2023).)
